{
  "source": "paper PMC11245307",
  "about": "“Evolutionary adaptation of an HP1-protein chromodomain integrates chromatin and DNA sequence signals” (eLife, 2024)",
  "binders": {"B1": {"name": "H3K9me3 peptide (KQTAR-K[me3]-STGGK) (peptide)", "peptide": "KQTARK(Me3)STGGK", "notes": "histone H3 N-terminal tail, K4 to K14 with K9 trimethylated; also called H3K9me3-modified histone tail peptide; synthetic H3K9me3 peptides; source: synthetic peptide; bought: AnaSpec, Inc"}},
  "experiment_in_all_cases": "ITC; chromodomain at 100 µM, H3K9me3 peptide at approximately 1 mM; 20 mM Tris, pH 8.0, 25 mM NaCl, 2 mM β-mercaptoethanol; 20°C; MicroCal iTC200, sixteen 2.5 µl injections",
  "details_in_all_cases": "both partners purified",
  "key": {"[1]": {"biological_target": "T1, Rhino chromodomain G31D (Rhino residues 20-90) (D. melanogaster, UniProt Q7JXA8 20-90, G31D)", "T1 construct": "Rhino (HP1d), D. melanogaster, chromodomain construct spanning residues 20-90, with G31D; also called Rhino^G31D chromodomain; source: E. coli BL21-CodonPlus (DE3)-RIPL, purified (Ni-NTA, Ulp1 cleavage, ion exchange, Superdex75); not shown: His6, N-terminal, cleaved; SUMO, N-terminal, cleaved", "T1 sequence (looked up)": "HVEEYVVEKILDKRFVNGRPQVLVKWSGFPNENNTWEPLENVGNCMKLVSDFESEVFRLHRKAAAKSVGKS"}, "[2]": {"biological_target": "T2, Rhino chromodomain, wildtype construct (Rhino residues 20-90) (D. melanogaster, UniProt Q7JXA8 20-90)", "T2 construct": "Rhino (HP1d), D. melanogaster, chromodomain construct spanning residues 20-90; Expressed as His6-SUMO-RhinoCD in pET-28; the tag was removed with Ulp1 protease; also called RhinoCD; wildtype domain; source: E. coli BL21-CodonPlus (DE3)-RIPL, purified (Ni-NTA, Ulp1 cleavage, ion exchange, Superdex75); not shown: His6, N-terminal, cleaved; SUMO, N-terminal, cleaved", "T2 sequence (looked up)": "T1 sequence (looked up) with D12G"}, "[3]": {"biological_target": "T3, Rhino chromodomain G31A (Rhino residues 20-90) (D. melanogaster, UniProt Q7JXA8 20-90, G31A)", "T3 construct": "Rhino (HP1d), D. melanogaster, chromodomain construct spanning residues 20-90, with G31A; also called G31A mutant; source: E. coli BL21-CodonPlus (DE3)-RIPL, purified (Ni-NTA, Ulp1 cleavage, ion exchange, Superdex75); not shown: His6, N-terminal, cleaved; SUMO, N-terminal, cleaved", "T3 sequence (looked up)": "T1 sequence (looked up) with D12A"}},
  "note": "Substitutions are numbered along the chain they refer to. Ends that are not written are not given here. Me3 = trimethyl (on lysine, trimethyl-lysine)",
  "data": [
    {"binder": "B1", "values": [
      {"measurement": "Kd", "setting": "[1]", "value": "31.1 ± 3.2", "unit": "µM"},
      {"measurement": "Kd", "setting": "[2]", "value": "30.9 ± 3", "unit": "µM"},
      {"measurement": "Kd", "setting": "[3]", "value": "43.5 ± 8.6", "unit": "µM"}
    ]}
  ]
}
